Earlier results on one substance are cited in PMC7465696.

In this data set the target is HP1β CSD (Homo sapiens) (UniProt P83916). Briefly: sedimentation analysis.

Take HP1β CSD (from UniProt P83916): the Kd (commonly the constant that tells how readily two partners part at equilibrium) was under 150 nM.
